The text below walks through data of PMC10763354.

Experiment [1] concerns the target leucine-rich repeat containing 19 (LRRC19) protein (UniProt Q9H756). In words: MST; Monolith NT.115; NT647-labelled LRRC19 and DVF in the presence of typhaneoside; MST buffer (50 mM Tris-HCl pH 7.4, 150 mM NaCl, 10 mM MgCl2).
The target is the same in experiment [2]. In words: SPR; BIACORE 3000, 25 °C; LRRC19 immobilised on a CM5 chip (EDC/NHS); DVF in Tris buffered saline injected at 30 μL/min, at least 5 concentrations, 180 s binding, 300 s dissociation.

pKd: −log10 of the molar value.

The pKd is the negative decadic logarithm of the Kd, by convention in mol/L. Read a high pKd as a low Kd.

Sequence of leucine-rich repeat containing 19 (LRRC19) protein (Q9H756 25-270): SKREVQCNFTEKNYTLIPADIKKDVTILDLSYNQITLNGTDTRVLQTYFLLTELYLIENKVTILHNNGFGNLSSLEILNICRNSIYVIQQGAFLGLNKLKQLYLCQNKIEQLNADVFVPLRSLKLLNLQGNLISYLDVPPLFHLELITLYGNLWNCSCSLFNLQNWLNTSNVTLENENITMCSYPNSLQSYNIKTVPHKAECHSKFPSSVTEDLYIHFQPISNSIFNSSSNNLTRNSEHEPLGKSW

Turning to “Desulfovibrio vulgaris flagellin (natural protein)”, in experiment [1], the fold reduction of the binding affinity by typhaneoside (against DVF-LRRC19 without it) came out at 400 fold. This substance showed a pKd in experiment [2] of 4.46.
